Source: patent US20170072041A1 (OHIO STATE INNOVATION FOUNDATION, published 2017)

What was measured:
[1] = target: mouse DNase X on wild-type bone marrow-derived macrophages (BMDMs) (mouse) (UniProt Q9D7J6); experiment: cell-based or functional assay
[2] = target: T1, native human DNase X (deoxyribonuclease 1-like 1) from THP-1 cell lysate (human, UniProt P49184 19-302, limits assumed); experiment: far-Western blot, THP-1 cell lysate, anti-DNase X
T1 construct: GPI-anchored cell surface protein; also called DNase 1L1; DN1L1
T1 sequence (looked up): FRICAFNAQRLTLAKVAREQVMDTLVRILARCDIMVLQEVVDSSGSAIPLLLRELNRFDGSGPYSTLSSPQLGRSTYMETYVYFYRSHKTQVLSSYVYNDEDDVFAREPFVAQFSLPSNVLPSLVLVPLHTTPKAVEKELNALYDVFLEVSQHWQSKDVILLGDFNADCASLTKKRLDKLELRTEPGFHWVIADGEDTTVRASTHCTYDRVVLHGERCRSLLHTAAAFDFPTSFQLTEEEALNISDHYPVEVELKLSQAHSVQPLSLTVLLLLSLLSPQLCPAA

[3] = target: T2, mouse DNase X on wild-type bone marrow-derived macrophages (BMDMs) (mouse, UniProt Q9D7J6 38-314); experiment: bead binding to BMDMs of wild-type and DNase X-/- mice, 30 min at 4 C
T2 construct: whole, on cells
T2 sequence: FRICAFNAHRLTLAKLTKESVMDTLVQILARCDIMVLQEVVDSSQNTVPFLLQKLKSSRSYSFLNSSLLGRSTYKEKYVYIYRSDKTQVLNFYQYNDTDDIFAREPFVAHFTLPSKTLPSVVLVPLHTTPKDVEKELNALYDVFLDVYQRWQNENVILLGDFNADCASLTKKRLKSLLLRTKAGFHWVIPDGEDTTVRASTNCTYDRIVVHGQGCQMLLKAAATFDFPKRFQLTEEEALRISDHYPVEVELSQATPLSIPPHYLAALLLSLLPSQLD

[4] = target: T3, human DNase X on the cell surface (HEK293 cells, human primary macrophages derived from peripheral blood … (human, UniProt P49184 19-302)); experiment: immunofluorescence of non-permeabilised HEK293 cells incubated with coated beads
T3 construct: whole, on cells; Endogenous protein on non-permeabilised cells; also called cell surface-exposed DNase X; surface DNase X
T3 sequence: T1 sequence (looked up)

native full-length EtpE (ECH1038, entry triggering protein of Ehrlichia) of E. chaffeensis Arkansas (ligand)
decrease in E. chaffeensis binding and entry into BMDMs at 4 h pi, DNase X-/- against wild type [1]: 60%

B1: rEtpE-C (recombinant C-terminal region of EtpE/ECH1038, residues 1656-1963, C-terminal histidine-tagged fusion protein) (ligand)
chain: ELLSLVGGHRNASSNNANNGRSLSQGIRYKITFKISFAQNYFPVDEIIKLQQDANNMEYGVHGVHRTDIIALWSYISYASSKSKWLFKRYQSFAGLLFEIGAWGKCTSAERVFFTSMNRYSEKLPLKVYNFIRKITTGDFARKFSGMQSLYTYKQRVYDYVMHCVLRGGLGGECSDMTLREISNELHKLKQEIYSNYDVFRDLGITNGQQEVLLLINVMMLNYAMSDLLVSTTQVNSMLADVRSSLSRTAHCLPYGTVSQLQRSVSHMKYGEYSNYRASVVALWACISCLASFNDDMEPLIKLMLEGD
notes: Used renatured on membrane or Ni matrix, or coated on 0.5 um latex beads; also called rEtpE-C-coated beads; not shown: C-terminal histidine tag from pET33b(+)
binding result [2]: binds | binding result [3]: binds | binding result [4]: binds
